From US20050203012A1
Each block holds one substance with its values, some of them ahead of it.

Key:
[1] = target: human PTH-1 receptor (human) (UniProt Q03431); experiment: cell-based or functional assay
[2] = target: human PTH-1 receptor (human) (UniProt Q03431); experiment: competition with ^125I-[Nle^8,21, Tyr^34]rat PTH-(1-34) on HKRK B7 cells
[3] = target: human PTH-1 receptor (human) (UniProt Q03431); experiment: radioligand binding on HKRK B7 cells, no competitor, 2-8° C. for 6 hr

Chain of human PTH-1 receptor (human) (Q03431 27-593): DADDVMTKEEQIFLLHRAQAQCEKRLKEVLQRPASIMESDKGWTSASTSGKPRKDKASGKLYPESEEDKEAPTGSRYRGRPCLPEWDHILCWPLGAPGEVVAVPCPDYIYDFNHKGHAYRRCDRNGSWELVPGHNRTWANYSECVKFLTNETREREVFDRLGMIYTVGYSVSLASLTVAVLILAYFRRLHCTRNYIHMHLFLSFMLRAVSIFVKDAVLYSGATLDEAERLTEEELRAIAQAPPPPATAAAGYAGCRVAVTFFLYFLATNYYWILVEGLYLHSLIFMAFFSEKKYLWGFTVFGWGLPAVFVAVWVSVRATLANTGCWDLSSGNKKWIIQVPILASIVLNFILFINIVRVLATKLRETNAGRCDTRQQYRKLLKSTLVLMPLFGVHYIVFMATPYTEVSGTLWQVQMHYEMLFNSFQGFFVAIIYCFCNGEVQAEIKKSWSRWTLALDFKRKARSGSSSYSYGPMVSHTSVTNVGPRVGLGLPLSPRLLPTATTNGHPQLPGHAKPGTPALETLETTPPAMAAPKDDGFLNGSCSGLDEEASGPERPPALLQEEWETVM

Substance: desamino-[Ala^1]hPTH-(1-34) (from UniProt P01270 32-65) (peptide)
PLC Activity (% Basal) at 1000 nM [1]: 106 % Basal

Substance: desamino-[Gly^1]hPTH-(1-34) (from UniProt P01270 32-65) (peptide)
PLC Activity (% Basal) at 1000 nM [1]: 108 % Basal

Substance: ^125I-[Nle^8,21, Tyr^34]rat PTH-(1-34) (from UniProt P04089 32-65) (peptide)
cell-associated radioactivity (binding), basal [3]: 25500 cpm/well

Substance: hPTH-(2-34) (from UniProt P01270 33-65) (peptide)
PLC Activity (% Basal) at 1000 nM [1]: 88 % Basal

Other lines, results leading:

Cyclic AMP accumulation (% Maximum) at 0.01 nM [1]: 1.7 % Maximum
Cyclic AMP accumulation (% Maximum) at 0.1 nM [1]: 14 % Maximum
Cyclic AMP accumulation (% Maximum) at 1 nM [1]: 45 % Maximum
Cyclic AMP accumulation (% Maximum) at 10 nM [1]: 93 % Maximum
Cyclic AMP accumulation (% Maximum) at 100 nM [1]: 96 % Maximum
Cyclic AMP accumulation (% Maximum) at 1000 nM [1]: 100 % Maximum
EC50 of PLC activation [1]: 0.03 µM
IP3 Formation (% Maximum) at 1000 nM [1]: 87 % Maximum
IP3 Formation (% Maximum) at 10000 nM [1]: 100 % Maximum
IP3 formation at maximal concentrations of hPTH-(1-34) [1]: 1910 cpm/well
PLC Activity (% Basal) at 1000 nM [1]: 854 % Basal
cAMP accumulation at maximal concentrations of hPTH-(1-34) (pmoles/well/15 min) [1]: 207
cell-associated radioactivity (binding) in the presence of maximal concentrations of hPTH-(1-34) [2]: 956 cpm/well
Substance: hPTH-(1-34) (from UniProt P01270 32-65) (peptide)

PLC activation at 1000 nM peptide (percent of basal) [1]: 101
Substance: desamino-hPTHrP(1-36) (from UniProt P12272 37-72) (peptide)

PLC activation at 1000 nM peptide (percent of basal) [1]: 178
Substance: hPTHrP(1-36) (from UniProt P12272 37-72) (peptide)

PLC activity at 1000 nM peptide (percent of basal) [1]: 105
Substance: [Tyr^0]hPTH-(1-34) (from UniProt P01270 32-65) (peptide)
